Key:
[1] = tested on: fibroblasts or tumor cell lines; assay: Short-term growth factor signaling (TGFb, PDGF-BB) with or without AB0023; assay type: cell-based
[2] = tested on: purified recombinant human LOXL2; assay: Amplex Red assay of LOXL2 enzymatic activity; assay type: biochemical
Experimental: A mouse anti-human LOXL2 antibody (AB0023) was obtained by immunization with full-length LOXL2 protein and purified by SEC-HPLC (Tosoh TSKGEL G3000SWXL 7.8×300). Analytical size exclusion chromatography was used to assess antibody stability and purity. Purified AB0023 was run on SDS-PAGE Coomassie (Invitrogen BT 4-12% Gels) reducing and non-reducing gels to assess purity. Potency was examined by ELISA to determine Kd, and effect on LOXL2 enzymatic activity was determined using an Amplex Red Assay (Molecular Probes/Invitrogen, Carlsbad, Calif.). Antibody concentration was measured by absorbance at 280 nm using an Extinction Coefficient Abs 0.1% of 1.4. Identity was assayed by isoelectric focusing (Invitrogen pH 3-10 IEF Gels). For safety analysis, endotoxin levels were measured at a sensitivity range of 0.01-1 EU/ml (Charles River EndoSafe PTS).

Chain of purified recombinant human LOXL2 (Q9Y4K0 318-774 limits assumed): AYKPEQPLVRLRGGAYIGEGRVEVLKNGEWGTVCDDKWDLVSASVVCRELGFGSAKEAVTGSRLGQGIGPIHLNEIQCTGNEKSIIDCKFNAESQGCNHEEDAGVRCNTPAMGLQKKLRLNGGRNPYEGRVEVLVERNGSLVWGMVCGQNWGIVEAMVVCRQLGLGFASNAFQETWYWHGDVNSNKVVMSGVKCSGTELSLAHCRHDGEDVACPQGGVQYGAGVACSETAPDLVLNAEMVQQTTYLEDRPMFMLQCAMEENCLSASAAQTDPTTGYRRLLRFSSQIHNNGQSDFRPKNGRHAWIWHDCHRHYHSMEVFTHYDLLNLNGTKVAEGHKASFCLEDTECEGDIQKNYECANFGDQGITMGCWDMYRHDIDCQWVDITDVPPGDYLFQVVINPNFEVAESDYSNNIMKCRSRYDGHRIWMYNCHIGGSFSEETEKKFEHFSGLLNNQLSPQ

B1: AB0023: mouse anti-human LOXL2 monoclonal antibody; heavy chain variable region SEQ ID NO:1, light chain variable region SEQ ID NO:2 (antibody, listed as Mus musculus, V domains shown)
VH: MEWSRVFIFLLSVTAGVHSQVQLQQSGAELVRPGTSVKVSCKASGYAFTYYLIEWVKQRPGQGLEWIGVINPGSGGTNYNEKFKGKATLTADKSSSTAYMQLSSLTSDDSAVYFCARNWMNFDYWGQGTTLTVSS
VL: MRCLAEFLGLLVLWIPGAIGDIVMTQAAPSVSVTPGESVSISCRSSKSLLHSNGNTYLYWFLQRPGQSPQFLIYRMSNLASGVPDRFSGSGSGTAFTLRISRVEAEDVGVYYCMQHLEYPYTFGGGTKLEIK
modifications: Heavy chain; Light chain
inhibition of SMAD2 phosphorylation (TGFb signaling) ([1]; 10-60 minute time frame): 10-20%
effect on AKT phosphorylation ([1]; PDGF-BB, 10-60 minute time periods): No significant effects
mode of inhibition of LOXL2 [2]: non-competitive allosteric inhibitors
inhibition of LOXL2 enzymatic activity ([2]; in vitro): inhibits

Reference: patent publication US20110076272A1, “THERAPEUTIC METHODS AND COMPOSITIONS” (priority 2009, published 2011)
